Reference: the supplement of paper PMC9170038

System: MS2 coat protein
Assay: apparent KD of MS2 coat protein; designed switch direction (-1 OFF switch, 1 ON switch): -1; higher = weaker reporter binding
Outline: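 SNAP-549-labelled MS2 coat protein was titrated, doubling from 0.7 or 1.5 nM to 3 µM, over designed RNA switches transcribed on Illumina chips by stalled E. coli RNA polymerase. Runs were done without input, with 200 uM small-molecule ligand, or with an oligonucleotide input. Apparent KD is the per-design median over clusters of curve-fitted normalised fluorescence.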

[1] = input ligand: microRNA oligo, concentration not stated

Sequence | apparent KD of MS2 coat protein (input ligand: FMN 200 uM) [nM] | apparent KD of MS2 coat protein (input ligand: none) [nM] | apparent KD of MS2 coat protein [1] [nM] | apparent KD of MS2 coat protein (Eterna round: R95, input ligand: microRNA oligo, concentration not stated) [nM]
GUCAGACGAGGAUAUGAUUAAUAAUACAUGAGGAUCACCCAUGUAAUACUGAUCUAUGGAUCAGAAGGCGUCUGAC [E5/6-A4] (Eterna round: R97, puzzle: Exclusion 5) | 15 | 16.1 | – | –
GUCAGCUCGUCAGGAUAUACAUGAGGAUCACCCAUGUGAUCAAUAGCAGCUUCGGCUGCAUUAAUGUAGAAGGGACGAGCUGAU [ENG2/5-B2] (Eterna round: R96, puzzle: Exclusion NG 2) | – | – | 168 | –
GUCAGCUCGUCAGGAUAUACAUGAGGAUCACCCAUGUGGUCAAUAGCAGCUUCGGCUGCAUACAUGUAGAAGGGACGAGCUGAC [ENG2/7-B1] (Eterna round: R96, puzzle: Exclusion NG 2) | 18.8 | 78.2 | 6.88 | –
GUCAGCUCGUCAGGAUAUAUAUACAUGAGGAUCACCCAUGUAAGAUCAGCACUUCGGUGCAGUAUAUAGAAGGGACGAGCUGAC [ENG2/13-B1] (Eterna round: R96, puzzle: Exclusion NG 2) | 40.6 | 29.1 | 13.7 | –
GUCAGCUCGUGAGGAUAUAUUAACAUGAGGAUCACCCAUGUAAGAUCAGGCUUCGGCCAAUGUUAAUAGAAGGCACGAGCUGAC [ENG2/12-A1] (Eterna round: R96, puzzle: Exclusion NG 2) | 739 | 72.9 | 38.9 | –
GUCAGGUAUCGAGGAUAUGUGAAAGGAAGUGUAACAGAAGGCGAGGGCUUGACAUGAGGAUCACCCAUGUGAAGUGAUUCGAAG [PowerStrip EXNG 1.22] (Eterna round: R96, puzzle: Exclusion NG 1) | 51.8 | 62.9 | 52.5 | –
GUCAGGUAUCGAGGAUAUGUGAAAGGAAGUGUAGCAGAAGGCGAGGGCUUGACAUGAGGAUCACCCAUGUGAAGUGAUUCGAAG [17th something] (Eterna round: R96, puzzle: Exclusion NG 1) | 76.4 | 64.2 | 41 | –
GUCAUCAAACAUGGGAUUAACAUGAGGAUCACCCAUGUUAACAAGUUUUUUGCUCGUCUUAUAAUAAGUUUGAUGAC [Antenna 10 - Jieux - Sensor, turn-off variant 1] (Eterna round: R97, puzzle: Sensor, turn-off variant 1) | 7.6 | 13 | – | –
GUCAUCAAACAUGGGUUAAACAUGAGGAUCACCCAUGUUAUCAAGUUUUUUGCUCGUCUUAUAAUAAGUUUGAUGAC [Antenna 12 - Jieux - Sensor, turn-off variant 1] (Eterna round: R97, puzzle: Sensor, turn-off variant 1) | 35.7 | 41 | – | –
GUCAUCAAUCAUGGGAUAAACAUGAGGAUCACCCAUGUAUACAAGUUUUUUGCUCGUCUUAUAAUAAGAUUGAUGAC [Antenna 5 - Jieux - Sensor, turn-off variant 1] (Eterna round: R97, puzzle: Sensor, turn-off variant 1) | 13.7 | 15.9 | – | –
GUCAUCGCAGGAUAUUAGAAUUUUUACAUGAGGAUCACCCAUGUUAAUUGGGUCUAAGUCUAAGAAGGGCGAUGAA [JR_EX5_Sub012] (Eterna round: R97, puzzle: Exclusion 5) | 105 | 32.4 | – | –
GUCAUGUAAGGAUAUCUUACAUGUGACUUCGGUCACUGUCGAGAGAAGGUACAUGAGGAUCACCCAUGUUCGAC [Ex4-3: 53] (puzzle: Exclusion 4) | – | – | – | 15.6
GUCAUGUUAGGAUAUCUAACAUGUGACUUCGGUCACUGUCCAGAGAAGGAACAUGAGGAUCACCCAUGUUGGAC [Ex4-3: 56] (Eterna round: R96, puzzle: Exclusion 4) | 16.5 | 18.3 | 13.9 | –
